Assay results from patent US20230399406A1.

Target: human PD-L1 (programmed death-ligand 1) (human) (UniProt Q9NZQ7)
Assay: cell-based or functional assay

UniProt Q9NZQ7, sequence (Q9NZQ7 19-290): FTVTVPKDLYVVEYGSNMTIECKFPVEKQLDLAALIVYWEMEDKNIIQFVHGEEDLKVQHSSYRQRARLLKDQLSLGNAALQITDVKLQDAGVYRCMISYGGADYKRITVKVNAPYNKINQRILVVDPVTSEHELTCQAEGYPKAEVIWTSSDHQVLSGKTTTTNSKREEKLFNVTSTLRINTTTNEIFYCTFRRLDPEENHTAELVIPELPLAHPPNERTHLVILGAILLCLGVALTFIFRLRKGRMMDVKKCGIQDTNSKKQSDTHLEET

For Untargeted (BcII10 VHH) chimera, the STAT1 phosphorylation (phospho STAT1 MFI, FACS) in MDA-MB-321 cells was 100 ng/mL.
